According to patent publication US20230406885A1, “CYCLIC PEPTIDES FOR TRAPPING INTERLEUKIN-1 BETA” (MERCK SHARP & DOHME LLC, priority 2022, published 2023):
*1 amine or outer side, *2 acyl side, *3 side chain or, on linkers, in order; H or OH if unused. [ ]: non-standard residue; d: D form. TyrEtNAc = L-tyrosine O-ethyl acetamide, (S)-3-(4-(2-acetamidoethoxy)phenyl)-2-aminopropanoic acid, CC(=O)NCCOc1ccc(C[C@H](N[*:1])C(=O)[*:2])cc1; 3Pal4Ph4CO2H = (S)-4-(5-(2-amino-2-carboxyethyl)pyridin-2-yl)benzoic acid, O=C([C@H](Cc1ccc(-c2ccc(C(=O)[*:3])cc2)nc1)N[*:1])[*:2]; TyrEtMor = (S)-2-amino-3-(4-(2-morpholinoethoxy)phenyl)propanoic acid, O=C([C@H](Cc1ccc(OCCN2CCOCC2)cc1)N[*:1])[*:2]; Pro(trans-4-NH2) = O=C([C@@H]1C[C@@H](N[*:3])CN1[*:1])[*:2]; Bip(4'-COOH) = N[C@@H](Cc1ccc(-c2ccc(C(=O)O)cc2)cc1)C(=O)O; 1Nal(3S-Me) = C[C@@H](c1cccc2ccccc12)[C@H](N)C(=O)O; Ala(indazol-1-yl) = N[C@@H](Cn1ncc2ccccc21)C(=O)O; Ala(indolin-1-yl) = N[C@@H](CN1CCc2ccccc21)C(=O)O; Phe(4-COOH) = N[C@@H](Cc1ccc(C(=O)O)cc1)C(=O)O; 1Nal = N[C@@H](Cc1cccc2ccccc12)C(=O)O; hTyr = N[C@@H](CCc1ccc(O)cc1)C(=O)O; dNMeA = CN[C@H](C)C(=O)O; Dab = NCC[C@H](N)C(=O)O; Dap = NC[C@H](N)C(=O)O; Aib = CC(C)(N)C(=O)O

B1: SEQ ID NO: 117 (peptide)
peptide: cyclo([TyrEtNAc]W[Phe(4-COOH)]G[Pro(trans-4-NH2)][1Nal(3S-Me)]D[dNMeA]G[Bip(4'-COOH)]W[Dap][Aib][hTyr])
SMILES: CC(=O)NCCOc1ccc(C[C@@H]2NC(=O)[C@H](CCc3ccc(O)cc3)NC(=O)C(C)(C)NC(=O)[C@H](CN)NC(=O)[C@H](Cc3c[nH]c4ccccc34)NC(=O)[C@H](Cc3ccc(-c4ccc(C(=O)O)cc4)cc3)NC(=O)CNC(=O)[C@@H](C)N(C)C(=O)[C@H](CC(=O)O)NC(=O)[C@H]([C@@H](C)c3cccc4ccccc34)NC(=O)[C@@H]3C[C@@H](N)CN3C(=O)CNC(=O)[C@H](Cc3ccc(C(=O)O)cc3)NC(=O)[C@H](Cc3c[nH]c4ccccc34)NC2=O)cc1
B2: SEQ ID NO: 119 (peptide)
peptide: cyclo([TyrEtNAc]W[Phe(4-COOH)]G[Pro(trans-4-NH2)][1Nal(3S-Me)]D[dNMeA]G[Bip(4'-COOH)]W[Dap][dA][hTyr])
SMILES: CC(=O)NCCOc1ccc(C[C@@H]2NC(=O)[C@H](CCc3ccc(O)cc3)NC(=O)[C@@H](C)NC(=O)[C@H](CN)NC(=O)[C@H](Cc3c[nH]c4ccccc34)NC(=O)[C@H](Cc3ccc(-c4ccc(C(=O)O)cc4)cc3)NC(=O)CNC(=O)[C@@H](C)N(C)C(=O)[C@H](CC(=O)O)NC(=O)[C@H]([C@@H](C)c3cccc4ccccc34)NC(=O)[C@@H]3C[C@@H](N)CN3C(=O)CNC(=O)[C@H](Cc3ccc(C(=O)O)cc3)NC(=O)[C@H](Cc3c[nH]c4ccccc34)NC2=O)cc1
B3: SEQ ID NO: 12 (peptide)
peptide: cyclo([Bip(4'-COOH)]W[Phe(4-COOH)]G[Pro(trans-4-NH2)][1Nal(3S-Me)]D[dNMeA]G[3Pal4Ph4CO2H]W[Dap][dA][hTyr])
SMILES: C[C@@H]1C(=O)NCC(=O)N[C@@H](Cc2ccc(-c3ccc(C(=O)O)cc3)nc2)C(=O)N[C@@H](Cc2c[nH]c3ccccc23)C(=O)N[C@@H](CN)C(=O)N[C@H](C)C(=O)N[C@@H](CCc2ccc(O)cc2)C(=O)N[C@@H](Cc2ccc(-c3ccc(C(=O)O)cc3)cc2)C(=O)N[C@@H](Cc2c[nH]c3ccccc23)C(=O)N[C@@H](Cc2ccc(C(=O)O)cc2)C(=O)NCC(=O)N2C[C@H](N)C[C@H]2C(=O)N[C@@H]([C@@H](C)c2cccc3ccccc23)C(=O)N[C@@H](CC(=O)O)C(=O)N1C
B4: SEQ ID NO: 120 (peptide)
peptide: cyclo([TyrEtNAc]W[Phe(4-COOH)]G[Pro(trans-4-NH2)][1Nal(3S-Me)]D[dNMeA]G[Bip(4'-COOH)]W[Dap][dA][TyrEtMor])
SMILES: CC(=O)NCCOc1ccc(C[C@@H]2NC(=O)[C@H](Cc3ccc(OCCN4CCOCC4)cc3)NC(=O)[C@@H](C)NC(=O)[C@H](CN)NC(=O)[C@H](Cc3c[nH]c4ccccc34)NC(=O)[C@H](Cc3ccc(-c4ccc(C(=O)O)cc4)cc3)NC(=O)CNC(=O)[C@@H](C)N(C)C(=O)[C@H](CC(=O)O)NC(=O)[C@H]([C@@H](C)c3cccc4ccccc34)NC(=O)[C@@H]3C[C@@H](N)CN3C(=O)CNC(=O)[C@H](Cc3ccc(C(=O)O)cc3)NC(=O)[C@H](Cc3c[nH]c4ccccc34)NC2=O)cc1
B5: SEQ ID NO: 13 (peptide)
peptide: cyclo([Bip(4'-COOH)]W[Phe(4-COOH)]G[Pro(trans-4-NH2)][1Nal(3S-Me)]D[dNMeA]G[Bip(4'-COOH)][Ala(indazol-1-yl)][Dap][dA][hTyr])
SMILES: C[C@@H]1C(=O)NCC(=O)N[C@@H](Cc2ccc(-c3ccc(C(=O)O)cc3)cc2)C(=O)N[C@@H](Cn2ncc3ccccc32)C(=O)N[C@@H](CN)C(=O)N[C@H](C)C(=O)N[C@@H](CCc2ccc(O)cc2)C(=O)N[C@@H](Cc2ccc(-c3ccc(C(=O)O)cc3)cc2)C(=O)N[C@@H](Cc2c[nH]c3ccccc23)C(=O)N[C@@H](Cc2ccc(C(=O)O)cc2)C(=O)NCC(=O)N2C[C@H](N)C[C@H]2C(=O)N[C@@H]([C@@H](C)c2cccc3ccccc23)C(=O)N[C@@H](CC(=O)O)C(=O)N1C
B6: SEQ ID NO: 15 (peptide)
peptide: cyclo([Bip(4'-COOH)]W[Phe(4-COOH)]G[Pro(trans-4-NH2)][1Nal(3S-Me)]D[dNMeA]G[Bip(4'-COOH)][1Nal][Dab][Aib]G)
SMILES: C[C@@H]1C(=O)NCC(=O)N[C@@H](Cc2ccc(-c3ccc(C(=O)O)cc3)cc2)C(=O)N[C@@H](Cc2cccc3ccccc23)C(=O)N[C@@H](CCN)C(=O)NC(C)(C)C(=O)NCC(=O)N[C@@H](Cc2ccc(-c3ccc(C(=O)O)cc3)cc2)C(=O)N[C@@H](Cc2c[nH]c3ccccc23)C(=O)N[C@@H](Cc2ccc(C(=O)O)cc2)C(=O)NCC(=O)N2C[C@H](N)C[C@H]2C(=O)N[C@@H]([C@@H](C)c2cccc3ccccc23)C(=O)N[C@@H](CC(=O)O)C(=O)N1C
B7: SEQ ID NO: 16 (peptide)
peptide: cyclo([Bip(4'-COOH)]W[Phe(4-COOH)]G[Pro(trans-4-NH2)][1Nal(3S-Me)]D[dNMeA]G[Bip(4'-COOH)][1Nal][Dab][Aib][hTyr])
SMILES: C[C@@H]1C(=O)NCC(=O)N[C@@H](Cc2ccc(-c3ccc(C(=O)O)cc3)cc2)C(=O)N[C@@H](Cc2cccc3ccccc23)C(=O)N[C@@H](CCN)C(=O)NC(C)(C)C(=O)N[C@@H](CCc2ccc(O)cc2)C(=O)N[C@@H](Cc2ccc(-c3ccc(C(=O)O)cc3)cc2)C(=O)N[C@@H](Cc2c[nH]c3ccccc23)C(=O)N[C@@H](Cc2ccc(C(=O)O)cc2)C(=O)NCC(=O)N2C[C@H](N)C[C@H]2C(=O)N[C@@H]([C@@H](C)c2cccc3ccccc23)C(=O)N[C@@H](CC(=O)O)C(=O)N1C
B8: SEQ ID NO: 14 (peptide)
peptide: cyclo([Bip(4'-COOH)]W[Phe(4-COOH)]G[Pro(trans-4-NH2)][1Nal(3S-Me)]D[dNMeA]G[Bip(4'-COOH)][Ala(indolin-1-yl)][Dap][dA][hTyr])
SMILES: C[C@@H]1C(=O)NCC(=O)N[C@@H](Cc2ccc(-c3ccc(C(=O)O)cc3)cc2)C(=O)N[C@@H](CN2CCc3ccccc32)C(=O)N[C@@H](CN)C(=O)N[C@H](C)C(=O)N[C@@H](CCc2ccc(O)cc2)C(=O)N[C@@H](Cc2ccc(-c3ccc(C(=O)O)cc3)cc2)C(=O)N[C@@H](Cc2c[nH]c3ccccc23)C(=O)N[C@@H](Cc2ccc(C(=O)O)cc2)C(=O)NCC(=O)N2C[C@H](N)C[C@H]2C(=O)N[C@@H]([C@@H](C)c2cccc3ccccc23)C(=O)N[C@@H](CC(=O)O)C(=O)N1C
B9: SEQ ID NO: 118 (peptide)
peptide: cyclo([TyrEtNAc]W[Phe(4-COOH)]G[Pro(trans-4-NH2)][1Nal(3S-Me)]D[dNMeA]G[Bip(4'-COOH)]W[Dap][dA]A)
SMILES: CC(=O)NCCOc1ccc(C[C@@H]2NC(=O)[C@H](C)NC(=O)[C@@H](C)NC(=O)[C@H](CN)NC(=O)[C@H](Cc3c[nH]c4ccccc34)NC(=O)[C@H](Cc3ccc(-c4ccc(C(=O)O)cc4)cc3)NC(=O)CNC(=O)[C@@H](C)N(C)C(=O)[C@H](CC(=O)O)NC(=O)[C@H]([C@@H](C)c3cccc4ccccc34)NC(=O)[C@@H]3C[C@@H](N)CN3C(=O)CNC(=O)[C@H](Cc3ccc(C(=O)O)cc3)NC(=O)[C@H](Cc3c[nH]c4ccccc34)NC2=O)cc1

biological target: Recombinant human IL-1β (BioLegend 579404) (human, UniProt P01584 117-269); assay: cell-based or functional assay

In order of rising “MRC5 IC50” value:
1. B8  0.0297 nM
2. B5  0.031 nM
3. B3  0.0551 nM
4. B2  0.0602 nM
5. B1  0.16 nM
6. B7  0.175 nM
7. B6  0.653 nM
8. B4  0.86 nM
9. B9  0.973 nM
